These results are taken from publication PMC6802964.

Assay in all cases: other fluorescence titration; change of the CyPet-YPet FRET signal of the IQ-FRET protein (1 µM by the methods, 0.5 µM by the legend) with varying concentrations of Cam1 or Cam2; 140 mM KCl, 20 mM MOPS pH 7.0, with or without 2 mM MgCl2, 2 mM EGTA (absence of calcium)
In assay [1] the target is CyPet–Myo1^IQ12S742D–YPet FRET reporter protein (S742D phosphomimetic) (S. pombe).
For assay [2], the target named is T1, CyPet–Myo1^IQ12–YPet FRET reporter protein (S. pombe).
T1 sequence (Q9Y7Z8 whole entry, looked up): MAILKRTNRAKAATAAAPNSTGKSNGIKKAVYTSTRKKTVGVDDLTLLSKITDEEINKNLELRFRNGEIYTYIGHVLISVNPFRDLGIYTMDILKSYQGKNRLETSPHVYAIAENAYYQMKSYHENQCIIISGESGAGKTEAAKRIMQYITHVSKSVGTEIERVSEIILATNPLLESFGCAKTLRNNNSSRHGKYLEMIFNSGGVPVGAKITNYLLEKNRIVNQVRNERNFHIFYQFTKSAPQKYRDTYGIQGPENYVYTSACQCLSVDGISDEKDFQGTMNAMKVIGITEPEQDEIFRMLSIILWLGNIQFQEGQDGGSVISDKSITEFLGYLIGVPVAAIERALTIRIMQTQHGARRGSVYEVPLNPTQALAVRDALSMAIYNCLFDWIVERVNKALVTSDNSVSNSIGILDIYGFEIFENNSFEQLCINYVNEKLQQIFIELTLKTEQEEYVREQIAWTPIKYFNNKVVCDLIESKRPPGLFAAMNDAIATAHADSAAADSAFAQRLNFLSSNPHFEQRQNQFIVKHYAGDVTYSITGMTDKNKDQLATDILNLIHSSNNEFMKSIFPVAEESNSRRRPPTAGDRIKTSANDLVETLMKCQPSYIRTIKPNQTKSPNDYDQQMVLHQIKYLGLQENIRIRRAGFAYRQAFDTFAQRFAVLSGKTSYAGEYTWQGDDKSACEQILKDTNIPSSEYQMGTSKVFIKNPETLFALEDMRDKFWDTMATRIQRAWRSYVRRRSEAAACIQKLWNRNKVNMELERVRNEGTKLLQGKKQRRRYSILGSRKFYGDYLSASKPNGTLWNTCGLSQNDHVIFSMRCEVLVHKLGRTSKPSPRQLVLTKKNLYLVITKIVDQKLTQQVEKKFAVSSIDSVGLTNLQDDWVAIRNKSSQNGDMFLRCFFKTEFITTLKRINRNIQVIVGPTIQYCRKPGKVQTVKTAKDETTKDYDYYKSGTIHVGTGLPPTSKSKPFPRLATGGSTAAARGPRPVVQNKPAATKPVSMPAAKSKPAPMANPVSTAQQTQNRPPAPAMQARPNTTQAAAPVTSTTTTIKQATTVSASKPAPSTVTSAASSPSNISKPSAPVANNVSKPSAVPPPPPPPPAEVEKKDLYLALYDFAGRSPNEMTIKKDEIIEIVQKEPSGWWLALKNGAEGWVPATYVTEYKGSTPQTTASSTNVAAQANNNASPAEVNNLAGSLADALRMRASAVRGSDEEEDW

For assay [3], the target named is T2, CyPet–Myo1^IQ1–YPet FRET reporter protein (S. pombe).
T2 sequence (Q9Y7Z8 whole entry, looked up): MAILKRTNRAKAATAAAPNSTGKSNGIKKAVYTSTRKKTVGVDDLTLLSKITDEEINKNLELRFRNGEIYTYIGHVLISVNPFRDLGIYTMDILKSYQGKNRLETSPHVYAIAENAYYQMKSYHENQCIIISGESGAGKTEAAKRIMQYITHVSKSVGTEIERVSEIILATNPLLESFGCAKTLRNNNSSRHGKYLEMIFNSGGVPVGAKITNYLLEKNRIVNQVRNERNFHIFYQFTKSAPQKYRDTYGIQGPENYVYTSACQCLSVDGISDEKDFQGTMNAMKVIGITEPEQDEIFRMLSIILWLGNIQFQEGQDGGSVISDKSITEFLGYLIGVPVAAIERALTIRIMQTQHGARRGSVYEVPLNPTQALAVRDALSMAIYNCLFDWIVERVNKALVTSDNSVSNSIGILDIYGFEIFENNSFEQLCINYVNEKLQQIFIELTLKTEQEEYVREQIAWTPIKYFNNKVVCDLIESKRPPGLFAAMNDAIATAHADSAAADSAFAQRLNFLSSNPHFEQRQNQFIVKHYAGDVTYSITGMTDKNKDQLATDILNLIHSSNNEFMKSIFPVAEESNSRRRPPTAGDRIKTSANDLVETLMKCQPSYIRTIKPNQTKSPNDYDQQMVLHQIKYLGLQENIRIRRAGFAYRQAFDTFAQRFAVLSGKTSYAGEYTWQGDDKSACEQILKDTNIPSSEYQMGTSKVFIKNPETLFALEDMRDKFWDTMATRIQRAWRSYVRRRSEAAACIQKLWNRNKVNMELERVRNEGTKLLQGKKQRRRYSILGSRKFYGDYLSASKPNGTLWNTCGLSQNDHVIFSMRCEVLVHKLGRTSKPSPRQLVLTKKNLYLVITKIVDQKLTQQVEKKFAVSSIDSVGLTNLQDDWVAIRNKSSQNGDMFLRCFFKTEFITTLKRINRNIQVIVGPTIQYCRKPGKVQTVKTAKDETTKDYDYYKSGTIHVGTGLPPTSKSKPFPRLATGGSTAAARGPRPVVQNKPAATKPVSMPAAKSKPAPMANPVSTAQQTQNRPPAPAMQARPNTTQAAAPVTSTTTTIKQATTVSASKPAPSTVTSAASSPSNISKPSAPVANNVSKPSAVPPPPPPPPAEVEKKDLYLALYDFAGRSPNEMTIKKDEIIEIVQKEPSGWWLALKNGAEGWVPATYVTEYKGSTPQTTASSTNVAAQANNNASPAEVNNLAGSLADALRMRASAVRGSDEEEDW

B1: Cam2 (calcium-insensitive calmodulin-like protein) (natural protein)
chain: MPASKEQTDEMKEAFVLYDIDKDGLIPTSHVGSVLRSLGINVTDAELAKLSNELGDAIDEKKFMSFVSNKLRETESEEEYIKAFRVFDKDNSGYIETAKFADYMKTLGEKLSDNEVQLMVQEADPTNSGSFDYYDFVQRIMAK
As to B1, the drop in interaction against wild type Myo1^IQ12–FRET in assay [1] is 50%. Besides, in assay [2], the KD of the binding event that gives 70% of the signal change is 1100 nM and the stoichiometry N turned out to be 2. For the same molecule, in assay [3], the Kd stood at 400 nM.
